Experimental data: article PMC8113581 (2021)

Biological target: SARS-CoV-2 RBD (WT) (SARS-CoV-2, UniProt P0DTC2)
Experiment: SPR

B1: P4A1 (antibody, V domains shown)
VH: EVQLVESGGGLIQPGGSLRLSCAASGFIVSSNYMSWVRQAPGKGLEWVSIIYSGGSTFYADSVKGRFTISRDNSKNTLYLQMNSLRVEDTAVYYCARDLQELGSLDYWGQGTLVTVSS
VL: DIQMTQSPSSVSASVGDRVTITCRASQGISSWLAWYQQKPGKAPKLLIYAASSLQSGVPSRFSGSGSGTDFTLTISSLQPEDFATYYCQEANSFPYTFGQGTKLEIK
- Kd: 0.102 nM
